Patent publication US20240150475A1 (Molecular Partners, published 2024)

T1: biotinylated extracellular domains of human CD123 with C-terminal Fc tag and Avi tag (bio.hCD123-Fc(kih)-Avi) (human, UniProt P26951 19-303, biotinylated with BirA-GST (Avi tag))
T1 construct: Bought from Evitria; the second Fc chain and the number of CD123 arms are not described; also called biotinylated hCD123; recombinant human CD123 target; not shown: Avi tag
T1 sequence: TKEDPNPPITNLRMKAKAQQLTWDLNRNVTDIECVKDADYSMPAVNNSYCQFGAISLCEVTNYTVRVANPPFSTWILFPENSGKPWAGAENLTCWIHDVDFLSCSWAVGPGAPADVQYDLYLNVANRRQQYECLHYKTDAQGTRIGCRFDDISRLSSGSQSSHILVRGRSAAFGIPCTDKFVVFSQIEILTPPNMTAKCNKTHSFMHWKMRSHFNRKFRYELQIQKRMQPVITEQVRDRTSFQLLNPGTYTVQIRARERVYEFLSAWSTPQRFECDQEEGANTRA


Assays:
[1] = target: T1, biotinylated extracellular domains of …; assay: SPR (ProteOn XPR36), bio.hCD123 immobilised on NLC chip, DARPin in TCE format injected at 50 nM, single trace
Description: SPR measurements were performed using a ProteOn XPR36 instrument (BioRad). The running buffer was PBS pH 7.4 containing 0.005% Tween 20® (PBST). The bio.hCD123 target was immobilized on a NLC chips (BioRad) to a level of 600 RU. The interactions of the 96well purified CD123-specific ankyrin repeat proteins in TCE format to bio. hCD123 were measured by injecting the DARPin® molecules at 50 nM with an association of 120 s and dissociation of 1200 s using a constant flow of 100 μl/min. Some DARPin proteins were reinjected using a dissociation of 600 s. The target was regenerated between the individual measurements using 10 mM Glycine pH2.5. The signals were double referenced against the running buffer (PBST) treated control lane of L1 and A6.
Dissociation constants (KD) were calculated from the estimated on- and off-rates using standard procedures known to the person skilled in the art. KD values were determined by single trace SPR. The values in Table 2a are averages of multiple replicates.

[2] = target: T2, CD123 expressed on the surface of Molm-13 (Molm-13 N1) tumor cells (human, UniProt P26951 19-378); assay: flow cytometry on CD123-expressing Molm-13 N1 tumor cells, monospecific format
T2 construct: whole, on cells; also called CD123-expressing tumor cells; CD123 expressed on tumor cells
Description: Binding of binding proteins of the invention to CD123 expressed on the surface of tumor cells was analyzed by fluorescence activated cell sorting (FACS) flow cytometry. For this purpose, CD123 expressing tumor cells (Molm-13 N1) were seeded at 100′000 cells per well in a 96 well plate. DARPin protein #2, DARPin protein #3, DARPin protein #9, DARPin protein #12, DARPin protein #13 and DARPin protein #14, in monospecific format, were titrated down in 1:5 dilution ratio starting at 2000 nM. Tumor cells were resuspended with diluted DARPin proteins and incubated for 60 minutes at 4° C. The assay was performed in PBS including 2% fetal bovine serum without human serum albumin (HSA). After washing twice with Phosphate Buffer saline (PBS), DARPin® protein specific tumor cell binding was detected by adding unlabeled primary anti-rabbit DARPin® antibody (anti-rabbit 1-1-1 antibody, CePower) at 2 ug/ml. An incubation step of at least 30 minutes at 4° C. followed. Afterwards, cells were washed with PBS and a secondary goat anti-rabbit antibody labelled with Alexa Fluor 488 antibody (ThermoFisher) at 2 ug/ml was added. The same incubation conditions applied. Finally, the cells were washed twice and resuspended in Cytofix fixation buffer (BD Biosciences) for 15 min at room temperature (RT).

[3] = target: T1, biotinylated extracellular domains of …; assay: SPR (ProteOn), bio.hCD123 on neutravidin-coated GLC chip, DARPin 100-1.2 nM, 1:1 Langmuir fit
Description: Moreover, the binding affinities of three additional purified ankyrin repeat proteins on recombinant human CD123 target were measured and analyzed with a procedure as described above for DARPin proteins #1, #3 to #9. Briefly, neutravidin was precoated on a GLC chip (BioRad) to a level of 6000 RU. In a second step, bio.hCD123 was immobilized to a level of 1030 RU. A serial dilution of 100, 33, 11, 3.7 and 1.2 nM was used to measure the binding of DARPin protein #12, DARPin protein #13 and DARPin protein #14 to bio.hCD123. For all described measurements, an association of 120 s and dissociation of 1200 s using a constant flow of 100 μl/min were applied. The CD123 target was regenerated with two different conditions (10 mM Glycine pH2.0 and 4M MgCl2) each applied for 30s. The signals were double referenced against interspot and the running buffer (PBST-PBS pH 7.4 containing 0.005% Tween 20®) treated control lane A6. The 1:1 Langmuir model was used for the fitting.
KD values were calculated from the estimated on- and off-rates using standard procedures known to the person skilled in the art. The values in Table 2b are averages of multiple replicates.

Row | Binder | Kd [1] | EC50 [2] | Kd [3]
1 | DARPin® protein #7 (in TCE format) (designed binder, not shown: small tags and cut ends) MRGSHHHHHHGSDLGKKLLQAARAGQLDEVRELLKAGADVNAKDEYGLTPLHLAAEFGHLEIVEVLLKAGADVNAKDANGHTPLHLAAAYDHLEIVEVLLKAGADVNAKDTSGKTPLHLAAQYGHLEIVEVLLKAGADVNAQDKSGKTPADLAARAGHQDIAEVLQKAA | 0.93 nM |  | 
2 | DARPin® protein #9 (monospecific format) (designed binder) DLGWKLLDAAEIGQDDEVRILLAAGADVNAKDKQGITPLHIAAAHGHLEIVEVLLKAGADVNAKDEIGRTPLHLAAFKGHLEIVEVLLKAGADVNAQDIIGETPADLAAVRGHEDIAEVLQKAA |  | 7.9 nM | 
3 | DARPin® protein #12 (designed binder) DLGWKLLDAAEIGQLDEVRILLKAGADVNAKDKQGITPLHIAAAHGHLEIVEVLLKAGADVNAKDEIGRTPLHLAAFKGHLEIVEVLLKAGADVNAQDIIGETPADLAAVRGHQDIAEVLQKAA |  | 3.2 nM | 0.49 nM
4 | DARPin® protein #1 (in TCE format) (designed binder, not shown: small tags and cut ends) MRGSHHHHHHGSDLGKKLLEAALEGQDDEVRELLKAGADVNAKDQEGYTPLHLAAALGHLEIVEVLLKAGADVNAKDSIGRTPLHLAAYKGHLEIVEVLLKAGADVNAQDLLGETPADLAAEQGHEDIAEVLQKAA | 12 nM |  | 
5 | DARPin® protein #6 (in TCE format) (designed binder, not shown: small tags and cut ends) MRGSHHHHHHGSDLGEKLLEAALEGQDDEVRELLKAGADVNAKDQEGYTPLHLAAALGHLEIVEVLLKAGADVNAKDSIDRTPLHLAAYKGHLEIVEVLLKAGADVNAQDAAGQTPADLAAALGHEDIAEVLQKAA | 4.5 nM |  | 
6 | DARPin® protein #4 (in TCE format) (designed binder, not shown: small tags and cut ends) MRGSHHHHHHGSDLGKKLLQAARAGQLDEVRELLKAGADVNAKDEYGATPLHLAAYSGHLEIVEVLLKAGADVNAKDEWGRTPLHVAALSGHLEIVEVLLKAGADVNAKDHQGRTPLHLAALWGHLEIVEVLLKAVADVNAQDKSGKTPADLAARAGHQDIAEVLQKAA | 45 nM |  | 
7 | DARPin® protein #13 (designed binder) DLGKKLLEAALEGQLDEVRELLKAGADVNAKDQEGYTPLHLAAALGHLEIVEVLLKAGADVNAKDQIGRTPLHLAAYKGHLEIVEVLLKAGADVNAQDIIGQTPADLAAQRGHQDIAEVLQKAA |  | 0.41 nM | 0.02 nM
8 | DARPin® protein #14 (designed binder) DLGKKLLQAALEGQLDEVRELLKAGADVNAKDIEGYTPLHLAAALGHLEIVEVLLKAGADVNAKDQIGRTPLHLAAYKGHLEIVEVLLKAGADVNAQDIIGQTPADLAAQRGHQDIAEVLQKAA |  | 1.3 nM | 0.02 nM

The next lines start with the values.

Row | Kd [1] | EC50 [2] | Kd [3] | Binder
9 |  | 77 nM |  | DARPin® protein #3 (monospecific format) (designed binder) DLGKKLLQAARAGQLDEVRELLKAGADVNAKDQYGRTPLHLAAIKGHLEIVEVLLKAGADVNAKDSLGYTPLHLAAVEGPLEIVEVLLKAGADVNAKDAYGQTPLHIAAAWGHLEIVEVLLKAVADVNAQDKSGKTPADLAARAGHQDIAEVLQKAA
10 | 2.1 nM |  |  | DARPin® protein #9 (in TCE format) (designed binder, not shown: small tags and cut ends) MRGSHHHHHHGSDLGWKLLDAAEIGQDDEVRILLAAGADVNAKDKQGITPLHIAAAHGHLEIVEVLLKAGADVNAKDEIGRTPLHLAAFKGHLEIVEVLLKAGADVNAQDIIGETPADLAAVRGHEDIAEVLQKAA
11 | 1 nM |  |  | DARPin® protein #8 (in TCE format) (designed binder, not shown: small tags and cut ends) MRGSHHHHHHGSDLGKKLLNAAHIGQDDEVRILLAAGADVNAKDIVGKTPLHIAAWLGHLEIVEVLLKAGADVNAKDDHGWTPLHIAAHVGHLEIVEVLLKAGADVNAQDNAGNTPADLVAFQGHEDIAEVLQKAA
12 | 0.52 nM |  |  | DARPin® protein #3 (in TCE format) (designed binder, not shown: small tags and cut ends) MRGSHHHHHHGSDLGKKLLQAARAGQLDEVRELLKAGADVNAKDQYGRTPLHLAAIKGHLEIVEVLLKAGADVNAKDSLGYTPLHLAAVEGPLEIVEVLLKAGADVNAKDAYGQTPLHIAAAWGHLEIVEVLLKAVADVNAQDKSGKTPADLAARAGHQDIAEVLQKAA
13 | 8.5 nM |  |  | DARPin® protein #5 (in TCE format) (designed binder, not shown: small tags and cut ends) MRGSHHHHHHGSDLGKKLLKAALLGQDDEVRELLKAGADVNAKDRFGYTPLHLAAWTGHLEIVEVLLKAGADVNAKDAYGWTPLHIAAHSGHLEIVEVLLKAGADVNAQDLEGETPADLAAAQGHEDIAEVLQKAA
14 |  | 29 nM |  | DARPin® protein #2 (designed binder) DLGKKLLEAALEGQLDEVRELLKAGADVNAKDQEGYTPLHLAAALGHLEIVEVLLKAGADVNAKDSIGRTPLHLAAYKGHLEIVEVLLKAGADVNAQDLLGETPADLAAEQGHQDIAEVLQKAA
